{
  "source": "patent US11608490B2",
  "about": "“Composition for enhancing hair growth-inducing ability of adipose stem cells comprising udenafil as active ingredient” (INDUSTRY-ACADEMIC COOPERATION FOUNDATION, YONSEI UNIVERSITY, priority 2018, dated 2023)",
  "key": {"[1]": {"system": "human adipose stem cells", "assay": "Scratch wound-healing assay", "format": "cell-based", "details": "for migration of the adipose stem cells, scratch wound-healing assay: IL-4 or IL-12B in serum-free medium for 3 days, FIG. 7 (B to E)", "description": "(§1) Human adipose stem cells were isolated via liposuction of subcutaneous fat, as described in a previous study: Briefly, the fat was washed with phosphate-buffered saline (PBS), 0.075% collagenase was added, and the mixture was incubated for 45 minutes at 37° C. with gentle shaking. After centrifugation, the pellet was filtered through a 100 am nylon mesh. Then, the cells were cultured with an essential medium containing alpha Minimum Essential Medium (α-MEM) (Hyclone, Logan, Utah, USA), 10% fetal bovine serum (FBS) (Gibco, Carlsbad, Calif., USA), and 1% antibiotics (Gibco) for three passages. Then, the medium was changed to contain α-MEM, 10% FBS, and 1% penicillin/streptomycin (Gibco), and the cells were cultured for four passages. The adipose stem cells at passages 5 to 7 were used for all experiments. Characterization of the adipose stem cells was performed using flow cytometry. The adipose stem cells were positive for CD44, CD73, CD90, CD105, human leukocyte antigen (HLA)-I, and podocalyxin-like protein (PODXL), and were negative for hematopoietic markers such as CD34 and CD45. A multipotent differentiation potential was examined, as described in a previous study; as a result, the adipose stem cells could be differentiated into adipocytes, osteocytes, and chondrocytes. The adipose stem cells were maintained at 37° C. in a humidified 5% CO2 incubator.\nThe adipose stem cells were seeded into 6-well plates and cultured to confluence. A sterile 1 ml pipette tip was used to scratch the cell monolayer. The cultures were then washed with PBS to remove de-plated cells, and the cells were again cultured with udenafil, or IL-4, and IL-12B in a serum-free medium for 3 days. Cell migration into the scratched area (wound closure) was visualized using a ZEISS™ Observer D1 microscope. Multiple images were acquired per well, and the average cell number within the wound was monitored over 3 days."}, "[2]": {"system": "IL-12B mRNA", "assay": "qPCR of IL-12B expression level in udenafil-treated adipose stem cells", "format": "cell-based", "details": "adipose stem cells treated with 1 μM udenafil for 3 to 4 days, versus non-udenafil-treated adipose stem cells (Control); FIG. 3", "description": "(§2) First, adipose stem cells were preconditioned with udenafil to prepare stimulated adipose stem cells. Adipose stem cells were inoculated on a […] and cultured. The following day, 1 μM udenafil was added to the culture medium and additional culture was performed for 3 to 4 days. Subsequently, adherent cultured adipose stem cells were detached with trypsin, and then obtained by centrifugation. The obtained adipose stem cells were prepared by being mixed with 100 μl of PBS.\n(§3) Specifically, as performed in Example <1-1>, adipose stem cells were treated with udenafil and cultured. After completion of the culture, the cells were obtained and RNA was extracted from the cells by treatment with TRIZOL™ (Invitrogen, NY, USA). Using the extracted RNA as a template, cDNA was synthesized through RT-PCR using oligodT and HELIXCRIPT™ Thermo Reverse Transcription System (NANOHELIX, WI, USA). The synthesized cDNA and BrightGreen qPCR master mix-ROX (abm, NY, US) were added to 96-well qPCR assay Kit for identifying growth factors [RT^2 First Strand (DNA Synthesis Kit (QIAGEN, MD, USA)], to perform a qPCR reaction. The results obtained by performing the qPCR reaction were analyzed using a program which corresponds to the RT^2 First Strand cDNA Synthesis Kit and is provided by QIAGEN, and IL-4 and IL-12B expression levels in the udenafil-treated adipose stem cells were respectively identified."}, "[3]": {"system": "human adipose stem cells", "assay": "Transwell migration assay", "format": "cell-based", "details": "migration 1 day; for migration of the adipose stem cells, transwell migration assay: IL-4 or IL-12B treatment for 3 days, FIG. 7 (B to E)", "description": "as §1\nThe adipose stem cells were seeded into 60 mm plates and treated with udenafil IL-4, or IL-12B for 3 days. The adipose stem cells starved for 1 day (1.5×10^4cells/well) were suspended in a serum-free medium and seeded on the upper side of transwell membrane inserts (BD Falcon, CA, USA), which was pre-coated with MATRIGEL™ (1/60 dilution, BD MATRIGEL™ matrix, CA, USA). The normal serum With FBS was added in the lower side thereof as a chemoattractant. […] The inserts were stained with […] solution (Sigma-Aldrich) for 20 minutes, and the cell number was analyzed under a ZEISS™ Observer D1 microscope. Multiple images (15 to 20) were acquired per insert, and the average cell counts were calculated."}, "[4]": {"system": "human adipose stem cells", "assay": "Tube formation assay using MATRIGEL", "format": "cell-based", "details": "after 16 hours; FIG. 6(E)", "description": "as §1, with “chondrocytes. […]” for “chondrocytes.”, “number of tubes was analyzed under” for “adipose stem cells were maintained at 37° C. in”, “ZEISS™ Observer D1 microscope.” for “humidified 5% CO2 incubator.”"}, "[5]": {"system": "human adipose stem cells", "assay": "Cell growth assay (live cell number, trypan blue)", "format": "cell-based", "details": "7 days; for proliferation of the adipose stem cells (live cell number): IL-4 or IL-12B 100 ng/ml, FIG. 7(A)", "description": "as §1\nFor cell growth assay, the adipose stem cells were seeded in 12-well plates, with 5×10^3 cells/well, treated with udenafil (0.1, 0.5, or 1 μM), and incubated for 7 days. The adipose stem cells were also seeded in 12-well plates, with 1×10^4 cells/well, treated with a synthetic peptide of IL-4 or IL-12B (100 ng/ml), and incubated for 7 days. The cells were then trypsinized, stained with trypan blue (Sigma-Aldrich, MO, USA), and counted each day using a hemocytometer."}, "[6]": {"system": "IL-4 mRNA", "assay": "qPCR of IL-4 expression level in udenafil-treated adipose stem cells", "format": "cell-based", "details": "adipose stem cells treated with 1 μM udenafil for 3 to 4 days, versus non-udenafil-treated adipose stem cells (Control); FIG. 3", "description": "as §2, §3"}, "[7]": {"system": "dermal papilla cells (DP cells)", "assay": "Growth of dermal papilla cells after treatment with IL-4 or IL-12B", "format": "cell-based", "details": "FIG. 8"}, "[8]": {"system": "C3H mice", "assay": "Hair growth effect of IL-4 or IL-12B peptide applied to dorsum of mice", "format": "in vivo, mouse", "details": "100 ng/ml applied to dorsum once a day for 13 to 14 days, FIG. 4; for maturation of hair follicle tissue: H&E staining", "description": "Specifically, the dorsal hair of 6-week-old C3H mice was completely removed, and 100 ng/ml of an IL-4 peptide or an IL-12B peptide was applied to the dorsum of the mice once a day. It was identified whether the hair was growing while applying the IL-4 peptide or IL-12B peptide for 13 to 14 days. Then, a photograph was taken and the dorsal skin tissue was obtained."}, "[9]": {"system": "vibrissal hair follicle cells", "assay": "Vibrissal hair follicle culture, length of hair grown", "format": "cell-based, mouse", "details": "5 ng/ml or 20 ng/ml, 3 days culture, versus non-treated control; FIG. 5", "description": "In addition, the vibrissal hair follicle of 5-week-old C57b1/6 mice was dissected to obtain hair follicle cells, and the hair follicle cells were transferred to 48-well plates. Then, treatment with 5 ng/ml or 20 ng/ml of an IL-4 peptide or an IL-12B peptide was performed and culture was performed for 3 days. After completion of the culture, the hair follicle tissue was photographed and a length of hair grown therefrom was measured."}},
  "data": [
    {"molecule": "CCCOc1ccc(S(=O)(=O)NCCC2CCCN2C)cc1-c1nc(=O)c2c([nH]1)c(CCC)nn2C", "note": "(centres unmarked) [udenafil]", "values": [
      {"measurement": "ASC migration, scratch wound-healing assay", "setting": "[1]; udenafil in serum-free medium for 3 days, FIG. 6 (B to D)", "result": "increases ASC migration in both assays in a dose-dependent manner"},
      {"measurement": "IL-12B mRNA expression level", "setting": "[2]", "result": "about 6 fold"},
      {"measurement": "ASC migration, transwell migration assay", "setting": "[3]; udenafil treatment for 3 days, FIG. 6 (B to D)", "result": "increases ASC migration in both assays in a dose-dependent manner"},
      {"measurement": "number of nascent tubes (tube-forming activity)", "setting": "[4]", "result": "increases the number of nascent tubes"},
      {"measurement": "growth of adipose stem cells (live cell number)", "setting": "[5]; udenafil 0.1, 0.5 or 1 μM, FIG. 6(A)", "result": "increases growth of adipose stem cells in a time- and dose-dependent manner"},
      {"measurement": "IL-4 mRNA expression level", "setting": "[6]", "result": "about 4 fold"}
    ]},
    {"molecule": "IL-12B peptide: cytokine whose expression is increased in udenafil-treated adipose stem cells; called IL-12B peptide, synthetic peptide of IL-12B, IL-12B protein (protein, UniProt P29460 23-328, looked up) Interleukin-12 subunit beta: IWELKKDVYVVELDWYPDAPGEMVVLTCDTPEEDGITWTLDQSSEVLGSGKTLTIQVKEFGDAGQYTCHKGGEVLSHSLLLLHKKEDGIWSTDILKDQKEPKNKTFLRCEAKNYSGRFTCWWLTTISTDLTFSVKSSRGSSDPQGVTCGAATLSAERVRGDNKEYEYSVECQEDSACPAAEESLPIEVMVDAVHKLKYENYTSSFFIRDIIKPDPPKNLQLKPLKNSRQVEVSWEYPDTWSTPHSYFSLTFCVQVQGKSKREKKDRVFTDKTSATVICRKNASISVRAQDRYYSSSWSEWASVPCS", "values": [
      {"measurement": "migration of the adipose stem cells, scratch wound-healing assay", "setting": "[1]", "result": "increase migration of the adipose stem cells in a dose-dependent manner"},
      {"measurement": "growth of the DP cells", "setting": "[7]", "result": "increased growth of the DP cells"},
      {"measurement": "migration of the adipose stem cells, transwell migration assay", "setting": "[3]", "result": "increase migration of the adipose stem cells in a dose-dependent manner"},
      {"measurement": "hair growth effect", "setting": "[8]", "result": "increased hair growth effect"},
      {"measurement": "maturation of hair follicle tissue", "setting": "[8]", "result": "significantly maturated"},
      {"measurement": "proliferation of the adipose stem cells (live cell number)", "setting": "[5]", "result": "increases proliferation of the adipose stem cells in a time- and dose-dependent manner"},
      {"measurement": "length of hair grown from the hair follicle cells", "setting": "[9]", "result": "longer than that of the non-treated control"}
    ]},
    {"molecule": "IL-4 peptide: cytokine whose expression is increased in udenafil-treated adipose stem cells; called IL-4 peptide, synthetic peptide of IL-4, IL-4 protein (protein, UniProt P05112 25-153, looked up) Interleukin-4: HKCDITLQEIIKTLNSLTEQKTLCTELTVTDIFAASKNTTEKETFCRAATVLRQFYSHHEKDTRCLGATAQQFHRHKQLIRFLKRLDRNLWGLAGLNSCPVKEANQSTLENFLERLKTIMREKYSKCSS", "values": [
      {"measurement": "migration of the adipose stem cells, scratch wound-healing assay", "setting": "[1]", "result": "increase migration of the adipose stem cells in a dose-dependent manner"},
      {"measurement": "growth of the DP cells", "setting": "[7]", "result": "increased growth of the DP cells"},
      {"measurement": "migration of the adipose stem cells, transwell migration assay", "setting": "[3]", "result": "increase migration of the adipose stem cells in a dose-dependent manner"},
      {"measurement": "hair growth effect", "setting": "[8]", "result": "increased hair growth effect"},
      {"measurement": "maturation of hair follicle tissue", "setting": "[8]", "result": "significantly maturated"},
      {"measurement": "proliferation of the adipose stem cells (live cell number)", "setting": "[5]", "result": "not"},
      {"measurement": "length of hair grown from the hair follicle cells", "setting": "[9]", "result": "longer than that of the non-treated control"}
    ]}
  ]
}
